Laboratory results as given in US20240270821A1, “GIP/GLP1/GCG TRI-RECEPTOR AGONISTS AND USES THEREOF” (priority 2023, published 2024).

Key:
Assay in all cases: cell-based or functional assay
[1] = target: human glucagon receptor (human) (UniProt P47871)
[2] = target: T1, human GIP receptor (human) (UniProt P48546)
T1 sequence (looked up): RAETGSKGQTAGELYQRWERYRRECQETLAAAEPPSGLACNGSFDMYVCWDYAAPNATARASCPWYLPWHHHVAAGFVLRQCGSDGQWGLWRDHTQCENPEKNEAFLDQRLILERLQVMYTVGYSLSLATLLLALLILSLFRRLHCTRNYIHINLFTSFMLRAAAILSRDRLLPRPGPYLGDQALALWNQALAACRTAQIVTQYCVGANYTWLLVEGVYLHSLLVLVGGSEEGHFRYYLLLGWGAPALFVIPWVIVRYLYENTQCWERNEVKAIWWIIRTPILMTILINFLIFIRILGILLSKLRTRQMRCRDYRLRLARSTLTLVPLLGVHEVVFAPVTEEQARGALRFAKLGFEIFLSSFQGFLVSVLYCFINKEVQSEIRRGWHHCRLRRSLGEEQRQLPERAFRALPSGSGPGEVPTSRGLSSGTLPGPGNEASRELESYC

[3] = target: hGLP-1R (Homo sapiens, UniProt P43220)
Sequence of hGLP-1R (P43220 24-463): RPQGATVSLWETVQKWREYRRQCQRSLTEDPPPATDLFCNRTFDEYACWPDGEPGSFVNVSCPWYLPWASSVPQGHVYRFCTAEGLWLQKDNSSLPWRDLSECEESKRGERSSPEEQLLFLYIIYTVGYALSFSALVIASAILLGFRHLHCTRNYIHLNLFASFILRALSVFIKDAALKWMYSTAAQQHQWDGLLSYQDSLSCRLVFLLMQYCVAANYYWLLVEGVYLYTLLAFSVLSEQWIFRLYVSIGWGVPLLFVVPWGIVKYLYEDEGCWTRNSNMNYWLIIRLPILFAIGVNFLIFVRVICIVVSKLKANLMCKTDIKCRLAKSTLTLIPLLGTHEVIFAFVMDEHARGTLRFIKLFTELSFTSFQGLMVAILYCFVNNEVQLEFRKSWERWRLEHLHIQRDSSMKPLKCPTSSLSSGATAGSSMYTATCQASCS

Sequence of human glucagon receptor (human) (P47871 26-477): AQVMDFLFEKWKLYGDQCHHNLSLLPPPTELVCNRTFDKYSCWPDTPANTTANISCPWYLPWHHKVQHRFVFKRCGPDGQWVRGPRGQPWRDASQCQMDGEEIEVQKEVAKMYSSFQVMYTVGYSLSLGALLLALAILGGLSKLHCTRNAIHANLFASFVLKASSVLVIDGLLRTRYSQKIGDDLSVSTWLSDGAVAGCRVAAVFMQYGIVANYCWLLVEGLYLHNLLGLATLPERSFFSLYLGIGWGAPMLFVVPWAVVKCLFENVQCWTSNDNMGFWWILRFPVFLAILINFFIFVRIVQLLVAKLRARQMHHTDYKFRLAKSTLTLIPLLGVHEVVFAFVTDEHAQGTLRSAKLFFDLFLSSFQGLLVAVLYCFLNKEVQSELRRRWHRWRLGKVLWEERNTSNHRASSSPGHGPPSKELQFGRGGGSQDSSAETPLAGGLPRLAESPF

B1: Example 749 (peptide)
chain: YXQGTXTSDXXIXLDXKAQXEFIEXLVEGGPSSGAPPPSGE
modifications: synthetic construct; SITE 2: note = 2-Aminoisobutyric Acid; SITE 6: note = alpha-methyl-2-fluoro-L-phenylalanine; SITE 10: note = 3-(4-Pyridyl)-L-alanine; SITE 11: note = alpha-methyl-L-serine; SITE 13: note = alpha-methyl-leucine; SITE 16: note = L-ornithine; SITE 17: note = Lysine is chemically mo
- Relative cAMP EC50 [1]: 2.21 nM
- cAMP Rel EC50, nM (1% HSA) [1]: 28 nM
- Relative cAMP EC50 [2]: 0.00718 nM
- cAMP Rel EC50, nM (1% HSA) [2]: 1.47 nM
- Relative cAMP EC50 [3]: 0.293 nM
- cAMP Rel EC50, nM (1% HSA) [3]: 33.9 nM

B2: Example 767 (peptide)
chain: YXQGTXTSDXXIXLDXKYQXEFIEXLVEGGPSSGAPPPSGS
modifications: synthetic construct; SITE 2: note = 2-Aminoisobutyric Acid; SITE 6: note = alpha-methyl-2-fluoro-L-phenylalanine; SITE 10: note = 3-(4-Pyridyl)-L-alanine; SITE 11: note = alpha-methyl-L-serine; SITE 13: note = alpha-methyl-leucine; SITE 16: note = L-ornithine; SITE 17: note = Lysine is chemically mo
- Relative cAMP EC50 [1]: 1.13 nM
- cAMP Rel EC50, nM (1% HSA) [1]: 207 nM
- Relative cAMP EC50 [2]: 0.00792 nM
- cAMP Rel EC50, nM (1% HSA) [2]: 1.51 nM
- Relative cAMP EC50 [3]: 0.299 nM
- cAMP Rel EC50, nM (1% HSA) [3]: 56.8 nM

B3: Example 768 (peptide)
chain: YXQGTXTSDXXIXLEXKAQXEFIEXLVEGGPSSGAPPPSGS
modifications: synthetic construct; SITE 2: note = 2-Aminoisobutyric Acid; SITE 6: note = alpha-methyl-2-fluoro-L-phenylalanine; SITE 10: note = 3-(4-Pyridyl)-L-alanine; SITE 11: note = alpha-methyl-L-serine; SITE 13: note = alpha-methyl-leucine; SITE 16: note = L-ornithine; SITE 17: note = Lysine is chemically mo
- Relative cAMP EC50 [1]: 10.3 nM
- cAMP Rel EC50, nM (1% HSA) [1]: 2270 nM
- Relative cAMP EC50 [2]: 0.0294 nM
- cAMP Rel EC50, nM (1% HSA) [2]: 2.65 nM
- Relative cAMP EC50 [3]: 0.259 nM
- cAMP Rel EC50, nM (1% HSA) [3]: 33.2 nM

B4: Example 750 (peptide)
chain: YXQGTXTSDXXIXLDXKAQXEFIEXLVEGGPSSGEPPPSGE
modifications: synthetic construct; SITE 2: note = 2-Aminoisobutyric Acid; SITE 6: note = alpha-methyl-2-fluoro-L-phenylalanine; SITE 10: note = 3-(4-Pyridyl)-L-alanine; SITE 11: note = alpha-methyl-L-serine; SITE 13: note = alpha-methyl-leucine; SITE 16: note = L-ornithine; SITE 17: note = Lysine is chemically mo
- Relative cAMP EC50 [1]: 2 nM
- cAMP Rel EC50, nM (1% HSA) [1]: 205 nM
- Relative cAMP EC50 [2]: 0.00784 nM
- cAMP Rel EC50, nM (1% HSA) [2]: 1.34 nM
- Relative cAMP EC50 [3]: 0.302 nM
- cAMP Rel EC50, nM (1% HSA) [3]: 39.1 nM

B5: Example 772 (peptide)
chain: YXQGTFTSDFSQXLDKKAQXAFIEYLLAGGPSSGAPPPEGS
modifications: synthetic construct; SITE 2: note = 2-Aminoisobutyric Acid; SITE 13: note = alpha-methyl-leucine; SITE 17: note = Lysine is chemically modified through conjugation of the epsilon-amino group of the Lysine side chain with (2-[2-(2-Amino-ethoxy)-ethoxy]-acetyl)-(gamma-Glu)-CO-(CH2) 16-CO2H; SITE 20: n
- Relative cAMP EC50 [1]: 15.9 nM
- cAMP Rel EC50, nM (1% HSA) [1]: 1880 nM
- Relative cAMP EC50 [2]: 0.115 nM
- cAMP Rel EC50, nM (1% HSA) [2]: 21.6 nM
- Relative cAMP EC50 [3]: 1.38 nM
- cAMP Rel EC50, nM (1% HSA) [3]: 206 nM

B6: Example 773 (peptide)
chain: YXQGTFTSDFSQXLDKKAQXAFIEYLLAGGPSSGEPPPSGS
modifications: synthetic construct; SITE 2: note = 2-Aminoisobutyric Acid; SITE 13: note = alpha-methyl-leucine; SITE 17: note = Lysine is chemically modified through conjugation of the epsilon-amino group of the Lysine side chain with (2-[2-(2-Amino-ethoxy)-ethoxy]-acetyl)-(gamma-Glu)-CO-(CH2) 16-CO2H; SITE 20: n
- Relative cAMP EC50 [1]: 15.3 nM
- cAMP Rel EC50, nM (1% HSA) [1]: 2260 nM
- Relative cAMP EC50 [2]: 0.0974 nM
- cAMP Rel EC50, nM (1% HSA) [2]: 26.3 nM
- Relative cAMP EC50 [3]: 1.97 nM
- cAMP Rel EC50, nM (1% HSA) [3]: 241 nM

B7: Example 774 (peptide)
chain: YXQGTFTSDFSQXLDKKAQXAFIEWLLEGGPSSGAPPPEGS
modifications: synthetic construct; SITE 2: note = 2-Aminoisobutyric Acid; SITE 13: note = alpha-methyl-leucine; SITE 17: note = Lysine is chemically modified through conjugation of the epsilon-amino group of the Lysine side chain with (2-[2-(2-Amino-ethoxy)-ethoxy]-acetyl)-(gamma-Glu)-CO-(CH2) 16-CO2H; SITE 20: n
- Relative cAMP EC50 [1]: 13.7 nM
- cAMP Rel EC50, nM (1% HSA) [1]: 2330 nM
- Relative cAMP EC50 [2]: 0.128 nM
- cAMP Rel EC50, nM (1% HSA) [2]: 32.8 nM
- Relative cAMP EC50 [3]: 1.89 nM
- cAMP Rel EC50, nM (1% HSA) [3]: 404 nM

B8: Example 794 (peptide)
chain: YXQGTFTSDFSRXLDKKAQXAFIEYLIEGGESSGAPPPSGS
modifications: synthetic construct; SITE 2: note = 2-Aminoisobutyric Acid; SITE 13: note = alpha-methyl-leucine; SITE 17: note = Lysine is chemically modified through conjugation of the epsilon-amino group of the Lysine side chain with (2-[2-(2-Amino-ethoxy)-ethoxy]-acetyl)-(gamma-Glu)-CO-(CH2) 16-CO2H; SITE 20: n
- Relative cAMP EC50 [1]: 1.21 nM
- cAMP Rel EC50, nM (1% HSA) [1]: 297 nM
- Relative cAMP EC50 [2]: 0.468 nM
- cAMP Rel EC50, nM (1% HSA) [2]: 68.4 nM
- Relative cAMP EC50 [3]: 1.26 nM
- cAMP Rel EC50, nM (1% HSA) [3]: 233 nM

B9: Example 795 (peptide)
chain: YXQGTFTSDFSQXLDKKAQXAFIEYLIEGGESSGAPPPSGS
modifications: synthetic construct; SITE 2: note = 2-Aminoisobutyric Acid; SITE 13: note = alpha-methyl-leucine; SITE 17: note = Lysine is chemically modified through conjugation of the epsilon-amino group of the Lysine side chain with (2-[2-(2-Amino-ethoxy)-ethoxy]-acetyl)-(gamma-Glu)-CO-(CH2) 16-CO2H; SITE 20: n
- Relative cAMP EC50 [1]: 1.77 nM
- cAMP Rel EC50, nM (1% HSA) [1]: 566 nM
- Relative cAMP EC50 [2]: 0.345 nM
- cAMP Rel EC50, nM (1% HSA) [2]: 67.3 nM
- Relative cAMP EC50 [3]: 0.972 nM
- cAMP Rel EC50, nM (1% HSA) [3]: 221 nM

B10: Example 788 (peptide)
chain: YXQGTFTSDFSQXLDKKAQXAFIEYLLEXGESSGEPPPSGS
modifications: synthetic construct; SITE 2: note = 2-Aminoisobutyric Acid; SITE 13: note = alpha-methyl-leucine; SITE 17: note = Lysine is chemically modified through conjugation of the epsilon-amino group of the Lysine side chain with (2-[2-(2-Amino-ethoxy)-ethoxy]-acetyl)-(gamma-Glu)-CO-(CH2) 16-CO2H; SITE 20: n
- Relative cAMP EC50 [1]: 3.36 nM
- cAMP Rel EC50, nM (1% HSA) [1]: 1420 nM
- Relative cAMP EC50 [2]: 0.0923 nM
- cAMP Rel EC50, nM (1% HSA) [2]: 20.7 nM
- Relative cAMP EC50 [3]: 2.5 nM
- cAMP Rel EC50, nM (1% HSA) [3]: 528 nM

B11: Example 751 (peptide)
chain: YXQGTXTSDXXIXLDXKAQXEFIEXLVEGGPSSGAPPPSGSE
modifications: synthetic construct; SITE 2: note = 2-Aminoisobutyric Acid; SITE 6: note = alpha-methyl-2-fluoro-L-phenylalanine; SITE 10: note = 3-(4-Pyridyl)-L-alanine; SITE 11: note = alpha-methyl-L-serine; SITE 13: note = alpha-methyl-leucine; SITE 16: note = L-ornithine; SITE 17: note = Lysine is chemically mo
- Relative cAMP EC50 [1]: 1.9 nM
- cAMP Rel EC50, nM (1% HSA) [1]: 267 nM
- Relative cAMP EC50 [2]: 0.00759 nM
- cAMP Rel EC50, nM (1% HSA) [2]: 1.27 nM
- Relative cAMP EC50 [3]: 0.302 nM
- cAMP Rel EC50, nM (1% HSA) [3]: 32.3 nM

B12: Example 752 (peptide)
chain: YXQGTXTSDXXIXLDXKAQXEFIEXLVEGGPSSGEPPPSGSE
modifications: synthetic construct; SITE 2: note = 2-Aminoisobutyric Acid; SITE 6: note = alpha-methyl-2-fluoro-L-phenylalanine; SITE 10: note = 3-(4-Pyridyl)-L-alanine; SITE 11: note = alpha-methyl-L-serine; SITE 13: note = alpha-methyl-leucine; SITE 16: note = L-ornithine; SITE 17: note = Lysine is chemically mo
- Relative cAMP EC50 [1]: 1.9 nM
- cAMP Rel EC50, nM (1% HSA) [1]: 228 nM
- Relative cAMP EC50 [2]: 0.00689 nM
- cAMP Rel EC50, nM (1% HSA) [2]: 1.74 nM
- Relative cAMP EC50 [3]: 0.274 nM
- cAMP Rel EC50, nM (1% HSA) [3]: 44 nM

B13: Example 790 (peptide)
chain: YXQGTFTSDFSQXLDKKAQXAFIEYLLEXGESSGEPPPSGE
modifications: synthetic construct; SITE 2: note = 2-Aminoisobutyric Acid; SITE 13: note = alpha-methyl-leucine; SITE 17: note = Lysine is chemically modified through conjugation of the epsilon-amino group of the Lysine side chain with (2-[2-(2-Amino-ethoxy)-ethoxy]-acetyl)-(gamma-Glu)-CO-(CH2) 16-CO2H; SITE 20: n
- Relative cAMP EC50 [1]: 3.87 nM
- cAMP Rel EC50, nM (1% HSA) [1]: 1200 nM
- Relative cAMP EC50 [2]: 0.131 nM
- cAMP Rel EC50, nM (1% HSA) [2]: 34.1 nM
- Relative cAMP EC50 [3]: 3.19 nM
- cAMP Rel EC50, nM (1% HSA) [3]: 858 nM
